These results are taken from US9926369B2, “Methods for treating hepatocellular cancer by administering an anti-Ang-2 antibody” (Regeneron Pharmaceuticals, Inc., priority 2009, dated 2018).

For assay [1], the target named is hBA2 (Homo sapiens, UniProt O15123). Put plainly: SPR binding to human bow-Ang-2 tetrameric construct (hBA2). Background: Surface plasmon resonance follows binding to a sensor surface in real time, without labels.
The target in assay [2] is T1, Human Ang-2FD-hFc binding to hTie-2-mFc (Homo sapiens, UniProt O15123).
T1 sequence (O15123 282-496): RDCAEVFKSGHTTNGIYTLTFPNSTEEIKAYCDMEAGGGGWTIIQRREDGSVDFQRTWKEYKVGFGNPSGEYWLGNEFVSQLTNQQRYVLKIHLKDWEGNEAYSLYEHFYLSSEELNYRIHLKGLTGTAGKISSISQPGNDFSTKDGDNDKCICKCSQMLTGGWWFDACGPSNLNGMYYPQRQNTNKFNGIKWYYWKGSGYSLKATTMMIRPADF
Briefly: ELISA blocking of human Ang-2FD-hFc binding to hTie-2-mFc. The class given is biochemical. Conditions: 16.67 nM antibody; 2 nM Ang-2FD-hFc. The procedure:
Tie-2 is a natural receptor for Ang-2. Anti-Ang-2 antibodies were tested for their ability to block Ang-2 binding to human Tie-2 (hTie-2). hTie-2-mFc (a chimeric construct consisting of human Tie-2 conjugated to mouse IgG; SEQ ID NO:525) was coated onto 96-well plates at a concentration of 2 μg/ml and incubated overnight followed by washing four times in wash buffer (PBS with 0.05% Tween-20). The plate was then blocked with PBS (Irvine Scientific, Santa Ana, Calif.) containing 0.5% BSA (Sigma-Aldrich Corp., St. Louis, Mo.) for one hour at room temperature. In a separate plate, purified anti-Ang-2 antibodies, at a starting concentration of 50 nM, were serially diluted by a factor of three across the plate. Human, mouse or monkey Ang-2FD protein conjugated to human IgG (Ang-2FD-hFc) were added to final concentrations of 2 nM, 8 nM, or 2 nM respectively and incubated for one hour at room temperature. The antibody/Ang-2FD-Fc mixture was then added to the plate containing hTie-2-mFc and incubated for one hour at room temperature. Detection of Ang-2FD-hFc bound to hTie-2-mFc protein was determined with Horse-Radish Peroxidase (HRP) conjugated to a-human IgG antibody (Jackson Immuno Research Lab, West Grove, Pa.) and developed by standard colorimetric response using tetramethylbenzidine (TMB) substrate (BD Biosciences, San Jose, Calif.). Absorbance was read at OD450 for 0.1 sec.
(In general: In an ELISA, binding on a coated surface is turned into a signal by an enzyme label.)

Assay [3] concerns the target T2, hAng-2 WT binding to Tie-2 (Homo sapiens, UniProt O15123).
T2 construct: Full-length human Ang-2 or Ang-1 protein conjugated to 6× histidine tag (R&D Systems, Minneapolis, Minn.); purchased R&D Systems
T2 sequence (O15123 19-496): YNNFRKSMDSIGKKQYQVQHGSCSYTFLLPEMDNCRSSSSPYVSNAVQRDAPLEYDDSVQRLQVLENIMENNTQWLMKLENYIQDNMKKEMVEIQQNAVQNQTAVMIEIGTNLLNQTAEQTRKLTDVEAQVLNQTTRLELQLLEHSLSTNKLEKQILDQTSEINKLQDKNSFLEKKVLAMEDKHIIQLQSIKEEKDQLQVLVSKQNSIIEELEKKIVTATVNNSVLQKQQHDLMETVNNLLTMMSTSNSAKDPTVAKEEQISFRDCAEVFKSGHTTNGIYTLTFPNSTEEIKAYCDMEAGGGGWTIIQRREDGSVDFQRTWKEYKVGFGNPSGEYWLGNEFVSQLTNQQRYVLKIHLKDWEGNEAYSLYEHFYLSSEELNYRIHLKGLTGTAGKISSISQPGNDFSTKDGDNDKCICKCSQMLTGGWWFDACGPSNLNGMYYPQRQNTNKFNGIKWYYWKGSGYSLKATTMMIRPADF
Briefly: ELISA blocking of full-length hAng-2 WT binding to hTie-2-mFc. The class given is biochemical. As for the experimental part: The ELISA experiments shown in this Example were conducted in a similar manner to the experiments of Example 5. Briefly, hTie-2-mFc (a chimeric construct consisting of human Tie-2 conjugated to mouse IgG; SEQ ID NO:525) was coated onto 96-well plates at a concentration of 2 μg/ml and incubated overnight followed by washing four times in wash buffer (PBS with 0.05% Tween-20). The plate was then blocked with PBS (Irvine Scientific, Santa Ana, Calif.) containing 0.5% BSA (Sigma-Aldrich Corp., St. Louis, Mo.) for one hour at room temperature. In a separate plate, purified anti-Ang-2 antibodies and control constructs, at a starting concentration of 300 nM, were serially diluted by a factor of three across the plate. Full-length human Ang-2 or Ang-1 protein conjugated to 6× histidine tag (R&D Systems, Minneapolis, Minn.) were added to a final concentration of 0.6 nM and incubated for one hour at room temperature. The antibody/antigen mixture was then added to the plate containing hTie-2-mFc and incubated for one hour at room temperature. Detection of Ang-2-His or Ang-1-His bound to hTie-2-mFc protein was determined with Horse-Radish Peroxidase (HRP) conjugated to a-Penta-His antibody (Qiagen, Valencia, Calif.) and developed by standard colorimetric response using tetramethylbenzidine (TMB) substrate (BD Biosciences, San Jose, Calif.). Absorbance was read at OD450 for 0.1 sec. […]

Assay [4] concerns the target T3, hAng-2FD-mFc S-480-P (Homo sapiens, UniProt O15123, S480P).
T3 construct: made in house
Briefly: Ang-2FD-mFc point mutant binding experiment (SPR), S-480-P. Conditions: S-480-P mutant captured; antibody/peptibody at 100 nM; 25° C. From the text:
To further characterize binding between hAng2 and anti-hAng2 mAbs of the invention, seven variant hAng2-FD-mFc proteins were generated, each containing a single point mutation. Amino acids selected for mutation were based on the difference in sequence between hAng-2 and hAng-1 in the region that interacts with hTie-2 (FIG. 1). In particular, amino acids within the fibrinogen-like domain (FD) of Ang-2 which are believed to interact with Tie-2 based on crystal structure analysis, but which differ from the corresponding amino acid in Ang-1, were individually mutated to the corresponding hAng-1 residue. The results of this example indicate the amino acid residues of hAng-2 with which the Ang-2 preferential binding antibodies interact.
In this experiment, each of the seven hAng-2FD-mFc mutant proteins were captured (˜147-283 RU) on an anti-mouse-Fc surface created through direct chemical coupling to a BIACORE™ chip. Then each Ang-2 antibody (or peptibody, as the case may be) at 100 nM was injected over the captured mFc-tagged hAng-2FD protein surface at a flowrate of 50 μl/min for 180 sec, and the dissociation of variant hAng2-FD-mFc and antibody was monitored in real time for 20 min at 25° C.

T3 sequence (O15123 with tags, fused parts or gaps S480P): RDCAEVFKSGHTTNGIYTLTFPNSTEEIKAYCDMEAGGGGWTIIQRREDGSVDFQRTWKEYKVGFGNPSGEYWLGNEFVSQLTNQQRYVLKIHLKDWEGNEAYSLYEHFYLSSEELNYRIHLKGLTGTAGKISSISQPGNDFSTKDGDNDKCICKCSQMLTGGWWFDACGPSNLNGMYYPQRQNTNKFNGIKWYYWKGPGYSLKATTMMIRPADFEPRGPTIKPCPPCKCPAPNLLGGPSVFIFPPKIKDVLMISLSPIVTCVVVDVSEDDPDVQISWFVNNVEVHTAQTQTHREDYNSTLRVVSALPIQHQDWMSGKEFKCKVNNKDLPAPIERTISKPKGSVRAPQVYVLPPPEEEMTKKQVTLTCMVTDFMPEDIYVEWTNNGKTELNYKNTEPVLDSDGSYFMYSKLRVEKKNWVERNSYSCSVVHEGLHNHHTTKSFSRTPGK
hBA2, sequence (O15123 with tags, fused parts or gaps): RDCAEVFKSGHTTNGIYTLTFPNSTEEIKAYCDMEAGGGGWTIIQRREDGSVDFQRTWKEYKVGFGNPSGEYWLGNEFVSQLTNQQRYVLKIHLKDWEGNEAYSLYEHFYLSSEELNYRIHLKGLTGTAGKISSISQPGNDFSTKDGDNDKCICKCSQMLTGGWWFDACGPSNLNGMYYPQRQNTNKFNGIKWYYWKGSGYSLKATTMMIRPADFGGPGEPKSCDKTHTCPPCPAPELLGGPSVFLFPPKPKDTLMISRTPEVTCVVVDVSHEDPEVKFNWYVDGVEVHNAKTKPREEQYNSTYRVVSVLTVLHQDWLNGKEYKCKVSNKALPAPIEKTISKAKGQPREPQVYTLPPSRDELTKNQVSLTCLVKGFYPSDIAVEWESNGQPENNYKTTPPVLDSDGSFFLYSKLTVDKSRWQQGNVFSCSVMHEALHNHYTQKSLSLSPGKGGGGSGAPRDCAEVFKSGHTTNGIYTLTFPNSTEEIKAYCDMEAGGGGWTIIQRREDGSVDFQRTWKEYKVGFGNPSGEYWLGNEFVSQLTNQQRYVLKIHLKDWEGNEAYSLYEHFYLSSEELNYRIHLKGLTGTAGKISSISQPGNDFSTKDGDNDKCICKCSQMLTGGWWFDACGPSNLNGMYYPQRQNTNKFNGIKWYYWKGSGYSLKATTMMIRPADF

On to “H1H685P: human anti-Ang-2 antibody, HCVR/LCVR SEQ ID NOs 18/20; also referred to as mAb1 [Antibody H1H685P]”, for which the Kd in assay [1] amounted to 0.0119 nM. In addition, the “Percent Blocking of Ang-2FD Binding to Tie-2, Human Ang-2FD-hFc” value in assay [2] is reported as 93.8%. Also, in assay [3] (0.6 nM hAng-2-His, read-out: (1) Blocking hAng-2 WT to Tie-2 IC50), the IC50 was determined as 0.129 nM. The “(3) Fold Difference in hAng-1 Blocking IC50 Compared to h-Ang-2 Blocking IC50” value in assay [3] (hAng-1 blocking IC50 divided by hAng-2 blocking IC50) is reported as above 2318. Moreover, in assay [4], binding was characterised by a dissociation constant (Kd) of 0.205 nM and the RU is listed as 161.13 RU.

The Kd is a measure of binding affinity in units of concentration. The low end stands for tighter binding, the high end for weaker binding. As usually defined, the IC50 is the point on the concentration scale where inhibition reaches its midpoint.
